Assay results reported in article PMC12245079, “FUS Selectively Facilitates circRNAs Packing into Small Extracellular Vesicles within Hypoxia Neuron”.

Key:
Assay in all cases: EMSA; 100 nM probe; 10 mM Tris-HCl pH 8.0, 10 mM NaCl, 25 mM KCl, 1 mM MgCl2, 1 mM DTT, 1 mg/mL tRNA; room temperature 30 min; 4% native acrylamide gel, 1x TBE
[1] = biological target: FUS polypeptide-1 (UniProt P35637 1-526); settings: protein: recombinant; tags: GST fusion (pGEX-4T-1), TEV cleavage described; label: Cy3 (3')
Sequence of FUS polypeptide-1 (P35637 whole entry, the tested form may be a part): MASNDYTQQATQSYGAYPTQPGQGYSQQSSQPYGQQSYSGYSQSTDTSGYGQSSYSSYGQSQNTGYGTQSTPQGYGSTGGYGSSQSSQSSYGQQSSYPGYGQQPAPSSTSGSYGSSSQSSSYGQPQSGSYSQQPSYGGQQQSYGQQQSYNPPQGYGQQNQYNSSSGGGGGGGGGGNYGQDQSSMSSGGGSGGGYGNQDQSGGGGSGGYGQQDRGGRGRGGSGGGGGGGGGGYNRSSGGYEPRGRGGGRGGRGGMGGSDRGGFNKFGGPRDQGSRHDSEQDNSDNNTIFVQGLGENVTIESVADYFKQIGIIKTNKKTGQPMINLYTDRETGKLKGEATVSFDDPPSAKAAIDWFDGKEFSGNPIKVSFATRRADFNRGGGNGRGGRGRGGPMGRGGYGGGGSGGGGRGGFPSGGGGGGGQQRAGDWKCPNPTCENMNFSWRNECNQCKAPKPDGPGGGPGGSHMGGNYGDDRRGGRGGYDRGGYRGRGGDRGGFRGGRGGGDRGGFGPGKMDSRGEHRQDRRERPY

[2] = biological target: FUS polypeptide-4 (UniProt P35637 280-375); settings: protein: recombinant; tags: GST fusion (pGEX-4T-1), TEV cleavage described; label: Cy3 (3')
Sequence of FUS polypeptide-4 (P35637 280-375): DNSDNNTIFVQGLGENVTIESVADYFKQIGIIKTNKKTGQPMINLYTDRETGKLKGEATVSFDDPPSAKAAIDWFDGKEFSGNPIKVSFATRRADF

[3] = biological target: FUS polypeptide-2 (UniProt P35637 50-400); settings: protein: commercial; tags: GST fusion (pGEX-4T-1) described; label: Cy3 (3')
Sequence of FUS polypeptide-2 (P35637 50-400): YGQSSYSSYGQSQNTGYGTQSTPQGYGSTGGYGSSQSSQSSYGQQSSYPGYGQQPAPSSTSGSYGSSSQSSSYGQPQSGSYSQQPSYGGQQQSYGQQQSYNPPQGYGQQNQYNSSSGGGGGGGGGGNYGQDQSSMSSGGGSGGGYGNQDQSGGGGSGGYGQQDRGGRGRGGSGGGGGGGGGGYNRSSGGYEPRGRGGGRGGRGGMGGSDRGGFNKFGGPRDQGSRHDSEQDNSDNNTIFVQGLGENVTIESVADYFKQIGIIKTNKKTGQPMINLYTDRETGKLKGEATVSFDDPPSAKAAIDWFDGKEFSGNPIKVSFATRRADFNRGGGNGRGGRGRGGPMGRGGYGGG

[4] = biological target: FUS polypeptide-3 (UniProt P35637 1-380); settings: protein: recombinant; tags: GST fusion (pGEX-4T-1), TEV cleavage described; label: Cy3 (3')
Sequence of FUS polypeptide-3 (P35637 1-380): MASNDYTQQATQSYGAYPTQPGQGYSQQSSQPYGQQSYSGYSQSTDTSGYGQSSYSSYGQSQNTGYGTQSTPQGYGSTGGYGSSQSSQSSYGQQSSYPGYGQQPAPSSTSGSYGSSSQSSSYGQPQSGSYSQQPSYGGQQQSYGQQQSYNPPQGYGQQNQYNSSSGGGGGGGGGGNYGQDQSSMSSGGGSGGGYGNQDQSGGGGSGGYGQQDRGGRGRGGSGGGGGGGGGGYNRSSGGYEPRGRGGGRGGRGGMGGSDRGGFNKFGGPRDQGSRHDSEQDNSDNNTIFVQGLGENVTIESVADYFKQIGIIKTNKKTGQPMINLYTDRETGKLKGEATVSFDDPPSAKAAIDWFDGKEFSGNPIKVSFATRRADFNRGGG

Binder: UUGUAUUUUGAGCUAGUUUGGUGAC (ssRNA) [GGUG oligo]
- binding result [1]: binds
- binding result [2]: no binding
- binding result [3]: binds
- binding result [4]: binds
